Among the data in the supplement of paper PMC10724198 are protein stability index values, retold here.

± gives the standard deviation of the averaged measurements.

For this data set, the system named is Saccharomyces cerevisiae. As to the kind of experiment: protein stability index of tFT-peptide fusion (C-terminal peptide) (PSI (0-1 scale)); higher = more stable (slower turnover). Particulars: temperature: 30 C. The protocol:
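MPS profiling in S. cerevisiae of the yeast C-terminome library: the last 12 aa of each annotated ORF are fused to the C-terminus of a sfGFP-mCherry timer, after a GGGS linker. Cells are FACS-sorted into 8 mCherry/sfGFP bins and deep-sequenced. PSI runs from 0 (unstable) to 1 (stable); wild type and das1Δ backgrounds, two technical replicates each.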

The mark [1] stands for this setting: genetic background: das1 deletion.

As for KDSKNGASTLTS [YSW1 C-terminal 12 aa], the protein stability index reads like this: under setting [1], 0.691 ± 0.041; (genetic background: wild type) 0.672 ± 0.018.
On the same counts, the results for KDVETLSVSDEK [SEO1 C-terminal 12 aa] are 0.686 ± 0.021 and 0.696 ± 0.043.
On the same counts, the results for KEALLTRLEHMI [SWC7 C-terminal 12 aa] are 0.682 ± 0.015 and 0.624 ± 0.011.
Taken in the same sequence, the figures for KEEEGSFNNVIG [PRE2 C-terminal 12 aa] were 0.702 ± 0.012 and 0.66 ± 0.014.
For the sequence KEFQNSDIADLY [SGV1 C-terminal 12 aa], the protein stability index is, setting by setting: under setting [1], 0.714 ± 0.01; (genetic background: wild type) 0.686 ± 0.017.
Taken in the same sequence, the figures for KFFLTISADVSF [YNL057W C-terminal 12 aa] were 0.6369 ± 0.0022 and 0.647 ± 0.03.
On the same counts, the results for KFRKDEDKSVKQ [TAN1 C-terminal 12 aa] are 0.68521 ± 0.00053 and 0.702 ± 0.056.
On the same counts, the results for KGDNITLITSAD [SME1 C-terminal 12 aa] are 0.688 ± 0.0079 and 0.685 ± 0.099.
Consider KHKNYLSFNFTK [YLL065W C-terminal 12 aa], for which the protein stability index runs as follows: under setting [1], 0.698 ± 0.038; (genetic background: wild type) 0.69 ± 0.012.
On the same counts, the results for KHKSSSYANRDS [DUS3 C-terminal 12 aa] are 0.6941 ± 0.00079 and 0.693 ± 0.026.
With KINKNGLLENIL [IES3 C-terminal 12 aa], the protein stability index reads like this: under setting [1], 0.702 ± 0.019; (genetic background: wild type) 0.7227 ± 0.0051.
As to KISFKWKKQRKR [UTP11 C-terminal 12 aa], the protein stability index turned out to be 0.71 ± 0.01 under setting [1] and 0.655 ± 0.015 (genetic background: wild type).
For the sequence KIYMANAPPPPV [VPS54 C-terminal 12 aa], the protein stability index came to 0.706 ± 0.013 under setting [1] and 0.668 ± 0.02 (genetic background: wild type).
On the same counts, the results for KKFIYQQLDMFS [YOL024W C-terminal 12 aa] are 0.7181 ± 0.0053 and 0.7 ± 0.024.
With KKGLTRSVKFKN [SAS10 C-terminal 12 aa], the protein stability index is, setting by setting: under setting [1], 0.708 ± 0.044; (genetic background: wild type) 0.667 ± 0.017.
Taken in the same sequence, the figures for KKHDWSDISQLW [OSH3 C-terminal 12 aa] were 0.7283 ± 0.0011 and 0.728 ± 0.016.
Taken in the same sequence, the figures for KKKSQNKSRKDD [PBR1 C-terminal 12 aa] were 0.7005 ± 0.0067 and 0.691 ± 0.069.
In turn, KKLAKSGIEFKW [NOP15 C-terminal 12 aa] registered a protein stability index under setting [1] of 0.704 ± 0.018 and a protein stability index (genetic background: wild type) of 0.684 ± 0.063.
On the same counts, the results for KKTAIDKLITLL [AIM18 C-terminal 12 aa] are 0.681 ± 0.019 and 0.342 ± 0.017.
Regarding KLKRAKRKGISE [IMP21 C-terminal 12 aa], the protein stability index is, setting by setting: under setting [1], 0.693 ± 0.013; (genetic background: wild type) 0.692 ± 0.012.
On the same counts, the results for KLRAKRLAKGGR [RPG1 C-terminal 12 aa] are 0.696 ± 0.012 and 0.705 ± 0.011.
KNFRNQYSLHPP [YHR095W C-terminal 12 aa]: the protein stability index under setting [1] amounted to 0.7047 ± 0.0045 and the protein stability index (genetic background: wild type) was determined as 0.6752 ± 0.0034.
In turn, KNRRGNRSGYRR [THO1 C-terminal 12 aa] registered a protein stability index under setting [1] of 0.703 ± 0.0025 and a protein stability index (genetic background: wild type) of 0.689 ± 0.024.
On the same counts, the results for KPIETVFDEETV [YIP3 C-terminal 12 aa] are 0.697 ± 0.018 and 0.72 ± 0.041.
Taken in the same sequence, the figures for KQGPKNLKKTKK [TAF13 C-terminal 12 aa] were 0.704 ± 0.0098 and 0.679 ± 0.0097.
As to KQQSWLRRVIGY [ENB1 C-terminal 12 aa], the protein stability index worked out at 0.696 ± 0.015 under setting [1] and 0.688 ± 0.038 (genetic background: wild type).
On the same counts, the results for KQSKKKTSFTRF [YBL028C C-terminal 12 aa] are 0.699 ± 0.036 and 0.66155 ± 0.00019.
For the sequence KRHLTPAVELDY [PRP40 C-terminal 12 aa], the protein stability index by setting is: under setting [1], 0.671 ± 0.008; (genetic background: wild type) 0.6566 ± 0.001.
On to KRKFLGEHRKTL [TOK1 C-terminal 12 aa], for which the protein stability index by setting is: under setting [1], 0.713 ± 0.01; (genetic background: wild type) 0.67338 ± 0.00061.
On the same counts, the results for KRLIGIAEATLN [SEC31 C-terminal 12 aa] are 0.666 ± 0.032 and 0.667 ± 0.014.
Consider KRNFCPFHDAVF [PIB1 C-terminal 12 aa], for which the protein stability index runs as follows: under setting [1], 0.712 ± 0.01; (genetic background: wild type) 0.716 ± 0.043.
Taken in the same sequence, the figures for “KRQGRTLYGFGG [YBR009C; YNL030W C-terminal 12 aa]” were 0.7013 ± 0.0062 and 0.693 ± 0.021.
Taken in the same sequence, the figures for KSGPEWIAENRD [TUM1 C-terminal 12 aa] were 0.716 ± 0.023 and 0.7166 ± 0.0051.
Turning to KSLWDYVKKNTE [TAF14 C-terminal 12 aa], the protein stability index was found to be 0.689 ± 0.046 under setting [1] and 0.712 ± 0.019 (genetic background: wild type).
Taken in the same sequence, the figures for KSTNCCLIYDST [KKQ8 C-terminal 12 aa] were 0.7052 ± 0.00093 and 0.675 ± 0.036.
Taken in the same sequence, the figures for KSVVVRSKEKQS [GAA1 C-terminal 12 aa] were 0.7002 ± 0.0014 and 0.441 ± 0.014.
Taken in the same sequence, the figures for KTETLSVPRILT [YBR090C C-terminal 12 aa] were 0.689 ± 0.01 and 0.722 ± 0.059.
For the sequence KTIDNLKALMKN [PFD1 C-terminal 12 aa], the protein stability index under setting [1] was 0.696 ± 0.0081 and the protein stability index (genetic background: wild type) was 0.721 ± 0.019.
On the same counts, the results for KTLWSRFIEHFV [MIM2 C-terminal 12 aa] are 0.746 ± 0.022 and 0.671 ± 0.023.
As for KTVGKLVLEIPQ [ZTA1 C-terminal 12 aa], the protein stability index was found to be 0.689 ± 0.033 under setting [1] and 0.701 ± 0.051 (genetic background: wild type).
Turning to KTVIENPLEMLL [LAT1 C-terminal 12 aa], the protein stability index by setting is: under setting [1], 0.6972 ± 0.002; (genetic background: wild type) 0.694 ± 0.025.
On the same counts, the results for KVEFSKSETKTL [MSL1 C-terminal 12 aa] are 0.71 ± 0.018 and 0.6736 ± 0.0014.
For the sequence KVHQGKYNGPGL [AI2 C-terminal 12 aa], the protein stability index amounted to 0.69085 ± 0.00022 under setting [1] and 0.727 ± 0.037 (genetic background: wild type).
Taken in the same sequence, the figures for KVKRLMDFLEED [NSL1 C-terminal 12 aa] were 0.678 ± 0.0098 and 0.694 ± 0.024.
On the same counts, the results for KWQARQRGLQRF [PMP1 C-terminal 12 aa] are 0.69535 ± 0.00066 and 0.704 ± 0.018.
For KWVGQYPVPGDI [SHM1 C-terminal 12 aa], the protein stability index runs as follows: under setting [1], 0.693 ± 0.0071; (genetic background: wild type) 0.687 ± 0.04.
In the case of KYFADLTQSITK [YBR242W C-terminal 12 aa], the protein stability index came out at 0.719 ± 0.051 under setting [1] and 0.687 ± 0.029 (genetic background: wild type).
Taken in the same sequence, the figures for LADSKHCSGLHK [ASF2 C-terminal 12 aa] were 0.6837 ± 0.0028 and 0.703 ± 0.0086.
On the same counts, the results for LAFSGGLANSIA [DSE4 C-terminal 12 aa] are 0.712 ± 0.00097 and 0.677 ± 0.024.
As to LALYKKAYGIEF [STP2 C-terminal 12 aa], the protein stability index by setting is: under setting [1], 0.686 ± 0.031; (genetic background: wild type) 0.6671 ± 0.0058.
Taken in the same sequence, the figures for LAPPPQKQSSSD [GRH1 C-terminal 12 aa] were 0.758 ± 0.058 and 0.729 ± 0.029.
On the same counts, the results for “LASEAAVGCNKS [YKL156C-A C-terminal 12 aa]” are 0.688 ± 0.0092 and 0.745 ± 0.055.
On the same counts, the results for LASKHSQYTSPQ [RGT2 C-terminal 12 aa] are 0.72 ± 0.0086 and 0.662 ± 0.014.
Turning to “LCMSCGYVSAGK [YMR173W-A C-terminal 12 aa]”, the protein stability index runs as follows: under setting [1], 0.697 ± 0.016; (genetic background: wild type) 0.749 ± 0.046.
Sequence LDDIEKDLRANA [SWI4 C-terminal 12 aa] came in with a protein stability index under setting [1] of 0.7 ± 0.021 and a protein stability index (genetic background: wild type) of 0.679 ± 0.012.
For LDISASLEKIAT [FMP52 C-terminal 12 aa], the protein stability index turned out to be 0.677 ± 0.018 under setting [1] and 0.682 ± 0.011 (genetic background: wild type).
Taken in the same sequence, the figures for LECTPIINLFIV [MNL1 C-terminal 12 aa] were 0.644 ± 0.0069 and 0.13125 ± 2.3e-05.
On the same counts, the results for LEDSTRVYSNLM [ARP1 C-terminal 12 aa] are 0.693 ± 0.007 and 0.6835 ± 0.0043.
As for LEEELTKIGLLP [GRX8 C-terminal 12 aa], the protein stability index runs as follows: under setting [1], 0.706 ± 0.018; (genetic background: wild type) 0.698 ± 0.0098.
On the same counts, the results for LEKLLKTVLNTL [ORC2 C-terminal 12 aa] are 0.69009 ± 0.00049 and 0.696 ± 0.028.
For LENTLKDSGVLQ [GPA2 C-terminal 12 aa], the protein stability index reads like this: under setting [1], 0.692 ± 0.002; (genetic background: wild type) 0.717 ± 0.047.
Taken in the same sequence, the figures for LESADKKKDVKA [DUS1 C-terminal 12 aa] were 0.692 ± 0.0088 and 0.713 ± 0.015.
With LETDQDFLDGLL [YER034W C-terminal 12 aa], the protein stability index under setting [1] is 0.708 ± 0.021 and the protein stability index (genetic background: wild type) amounted to 0.695 ± 0.0081.
Taken in the same sequence, the figures for LEVTTKPREWVK [HEM13 C-terminal 12 aa] were 0.687 ± 0.018 and 0.712 ± 0.069.
Taken in the same sequence, the figures for “LFSSRNTVCAPY [YIL134C-A C-terminal 12 aa]” were 0.7258 ± 0.0047 and 0.727 ± 0.018.
Taken in the same sequence, the figures for LFSVLVALLALL [CRH1 C-terminal 12 aa] were 0.661 ± 0.037 and 0.48 ± 0.017.
As to LGSSMVQGRSIR [YPK1 C-terminal 12 aa], the protein stability index by setting is: under setting [1], 0.71 ± 0.024; (genetic background: wild type) 0.661 ± 0.0085.
